Reference: patent US20260274933A1 (Innovent, published 2026)
Residue numbers refer to the chain shown, from its start. One block for each binder: values may come before it.

How the values were obtained:
[1] = biological target: T1, human VEGF165 (R&D) (human, UniProt P15692-4 27-191); test: BLI (ForteBio), bivalent binding
T1 construct: Antigen of the ForteBio assay

[2] = biological target: T1, human VEGF165 (R&D); test: BLI (ForteBio), monovalent binding
[3] = biological target: T2, biotin-labeled VEGF A165 (ACRO, Catalog No. VE5-H8210) (human, UniProt P15692-4 27-191, biotin-labeled); test: blocking ELISA: biotin VEGF A165 captured on streptavidin, binding of VEGFR-Fc blocked; value printed as EC50 in the table under the curves, unit from the axis
T2 construct: also called hVEGF A
T2 sequence (P15692 other isoform, or with tags, fused parts or gaps limits assumed): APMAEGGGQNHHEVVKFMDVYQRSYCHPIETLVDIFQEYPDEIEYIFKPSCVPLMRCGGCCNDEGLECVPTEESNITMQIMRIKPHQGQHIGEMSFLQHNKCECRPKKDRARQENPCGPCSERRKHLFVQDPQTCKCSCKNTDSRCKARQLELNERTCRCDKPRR
Protocol: (§1) SA (Thermo, Catalog No. 21125) was diluted to 1 μg/mL, and 100 μL/well of SA was plated in a microplate at 4° C. overnight. The plate was washed 3 times with PBST and blocked with 3% BSA for 1.5 h. […] The plate was washed 6 times with PBST, the color development was performed with TMB for 5 min, and OD450 nm was read after stopping.

[4] = biological target: T3, hAng2-biotin (R&D, Catalog No. BT623B/CF) (human, UniProt O15123 68-496, limits assumed, biotinylated); test: blocking ELISA: hTie2 coated, binding of biotinylated hAng2 blocked; unit from the axis
T3 construct: also called Ang2-Bio (R&D, Catalog No. BT623B/CF); Recombinant Biotinylated hAngiopoietin-2 protein (R&D)
T3 sequence (looked up): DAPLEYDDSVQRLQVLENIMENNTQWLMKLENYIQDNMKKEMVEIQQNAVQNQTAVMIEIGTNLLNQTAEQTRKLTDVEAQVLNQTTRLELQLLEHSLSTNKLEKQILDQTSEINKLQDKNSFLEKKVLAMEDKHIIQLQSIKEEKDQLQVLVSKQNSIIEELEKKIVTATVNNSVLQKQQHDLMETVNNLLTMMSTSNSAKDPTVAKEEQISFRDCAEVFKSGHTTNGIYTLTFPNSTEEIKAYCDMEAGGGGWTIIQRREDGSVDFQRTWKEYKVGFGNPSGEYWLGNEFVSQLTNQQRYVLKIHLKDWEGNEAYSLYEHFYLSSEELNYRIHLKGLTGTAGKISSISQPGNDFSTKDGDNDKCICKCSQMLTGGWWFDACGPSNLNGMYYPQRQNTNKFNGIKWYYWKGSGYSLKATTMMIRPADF
Protocol: (§2) The antigen-antibody mixture obtained as described above was incubated in the microplate for 90 min and washed three times with PBS, and the supernatant was discarded. 100 μL of Avidin-HRP (Invitrogen) diluted in a 1:10000 ratio was added to each well, incubated at room temperature for 30 min, and washed six times with PBS. A TMB chromogenic solution (solarbio) was added to the plate at 100 μL/well for color development for 1 min, and the reaction was stopped by adding a stop solution (Solarbio) at 100 μL/well.

[5] = biological target: T4, hAng2-Fc (Beijing Sino Biological, Catalog No. 10691-H02H) (human, UniProt O15123 19-496); test: flow cytometry blocking: binding of hAng2-Fc to Tie2 on 293-Tie2 cells blocked, Mean-PE-A; unit from the axis
T4 construct: Bought fusion protein; also called human Ang2-hFc; recombinant hAng2-Fc protein; not shown: human Fc of the bought fusion protein
T4 sequence (looked up): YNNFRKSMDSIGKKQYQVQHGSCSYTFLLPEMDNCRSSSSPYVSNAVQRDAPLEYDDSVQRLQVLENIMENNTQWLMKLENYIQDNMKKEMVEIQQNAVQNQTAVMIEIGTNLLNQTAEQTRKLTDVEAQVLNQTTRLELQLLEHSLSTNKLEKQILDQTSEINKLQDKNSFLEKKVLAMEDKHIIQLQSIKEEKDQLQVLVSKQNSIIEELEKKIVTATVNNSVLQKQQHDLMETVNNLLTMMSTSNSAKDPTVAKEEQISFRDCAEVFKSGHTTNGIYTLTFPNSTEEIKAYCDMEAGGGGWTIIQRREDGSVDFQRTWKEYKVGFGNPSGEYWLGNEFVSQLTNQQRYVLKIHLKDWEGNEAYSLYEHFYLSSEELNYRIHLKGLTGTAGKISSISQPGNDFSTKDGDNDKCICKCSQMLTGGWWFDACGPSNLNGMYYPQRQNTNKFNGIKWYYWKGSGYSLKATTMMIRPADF
Protocol: (§3) The cells were centrifuged at 300 g for 5 min. The supernatant was discarded. Then the cells were resuspended in an antigen-antibody mixture. The mixture was incubated on ice for 30 min. PBS was added at 100 μL/well. After centrifugation at 300 g for 5 min, the mixture was washed once with PBS. 100 μL of goat anti-human IgG-PE (SouthernBiotech) diluted in a 1:200 ratio was added to each well. After a 20-min ice bath, PBS was added at 100 μL/well. The mixture was centrifuged at 300 g for 5 min, prior to one wash with PBS. The cells were resuspended with 100 μL of PBS. The cell fluorescence signal values were measured by a flow cytometer (BD Biosciences). According to MFI, the concentration-dependent curve was fitted with GraphPad.

[6] = biological target: T4, hAng2-Fc (Beijing Sino Biological, …); test: flow cytometry blocking: binding of hAng2-Fc to Tie2 on 293-Tie2 cells blocked, Mean PE-A; unit from the axis
Protocol: as §3

[7] = biological target: T5, human Ang2 (human, UniProt O15123 19-496, limits assumed); test: BLI (ForteBio), bivalent binding
T5 construct: Antigen of the ForteBio assay; also called human Ang2 (Beijing Sino Biological)
T5 sequence (looked up): T4 sequence (looked up)

[8] = biological target: T5, human Ang2; test: BLI (ForteBio), monovalent binding
[9] = biological target: T5, human Ang2; test: BLI (ForteBio), bivalent binding; * dissociation constant exceeding ForteBio detection limits
[10] = biological target: T3, hAng2-biotin (R&D, Catalog No. …); test: blocking ELISA: Tie2-Fc coated, binding of hAng2-biotin blocked
Protocol: The plate was washed 3 times with PBST and blocked with 3% BSA for 1.5 h. […] The plate was washed 3 times with PBST, Avidin HRP (1:2000) was added, and the plate was incubated for 35 min. The plate was washed 6 times with PBST, the color development was performed with TMB for 5 min, and OD450 nm was read after stopping.

[11] = biological target: T3, hAng2-biotin (R&D, Catalog No. …); test: blocking ELISA: hTie2 coated, binding of biotinylated hAng2; fit value printed for the flat curve of the negative control, unit from the axis
Protocol: as §2

[12] = biological target: T3, hAng2-biotin (R&D, Catalog No. …); test: as above; remark: listed apart in the source
Protocol: as §2

[13] = biological target: T2, biotin-labeled VEGF A165 (ACRO, Catalog …); test: blocking ELISA: biotin VEGF A165 captured on streptavidin, binding of VEGFR-Fc; fit value printed for the flat curve of the negative control, unit from the axis
Protocol: as §1

[14] = biological target: T4, hAng2-Fc (Beijing Sino Biological, …); test: flow cytometry blocking: binding of hAng2-Fc to Tie2 on 293-Tie2 cells, Mean PE-A; fit value printed for the flat curve of the negative control, unit from the axis
Protocol: as §3

[15] = biological target: T4, hAng2-Fc (Beijing Sino Biological, …); test: flow cytometry blocking: binding of hAng2-Fc to Tie2 on 293-Tie2 cells, Mean-PE-A; fit value printed for the flat curve of the negative control, unit from the axis
Protocol: as §3

T1 sequence (P15692 other isoform, or with tags, fused parts or gaps limits assumed): as the sequence (P15692 other isoform, or with tags, fused parts or gaps limits assumed) above

B1: LA46E11 (VEGFA VHH) (VHH)
VHH: QVQLEESGGGLVQPGGSLRLSCVASGSIFSINAMGWHRQAPGSQRELVATMIGGSSTFYADSVNGRFTISRDNAKNTVYLQMNSLKLEDTAVYYCYADVTGRSGTSIWNKRDDYWGQGTLVTVSS
notes: Alpaca anti-VEGF A VHH; also called LA46E11 supernatant
Kd [1]: 1.11 nM
koff [1]: 0.0002 s⁻¹
kon [1]: 179000 M⁻¹ s⁻¹
Kd [2]: 7.74 nM
koff [2]: 0.00142 s⁻¹
kon [2]: 184000 M⁻¹ s⁻¹
EC50 [3]: 0.344 µg/mL

B3: IEX04-012 (bispecific antibody)
chain: DIQLTQSPSSLSASVGDRVTITCSASQDISNYLNWYQQKPGKAPKVLIYFTSSLHSGVPSRFSGSGSGTDFTLTISSLQPEDFATYYCQQYSTVPWTFGCGTKVEIKGGGGSGGGGSGGGGSGGGGSEVQLVESGGGLVQPGGSLRLSCAASGYDFTHYGMNWVRQAPGKCLEWVGWINTYTGEPTYAADFKRRFTFSLDTSKSTAYLQMNSLRAEDTAVYYCAKYPYYYGTSHWYFDVWGQGTLVTVSSGGGGSGGGGSGGGGSEVQLLESGGGLVQPGGSLRLSCAASGFALDYYAIGWFRQAPGKGLEGVSCISSGEGSTYYADSVKGRFTISRDNSKNTVYLQMNSLRAEDTAVYYCATDSRGDDVACEGLRRNEYDYWGQGTLVTVSS
notes: also called Ranibizumab scFv containing disulfide bond mutations + linker + LA24C11.10; recombinant anti-VEGF A/anti-Ang2 bispecific antibody
IC50 [4]: 7.1 nM
IC50 [5]: 0.685 nM

B4: IEX04-008 (bispecific antibody)
chain: EVQLLESGGGLVQPGGSLRLSCAASGSIFSINAMGWHRQAPGKQRELVATMIGGSSTFYAESVQGRFTISRDNSKNTVYLQMNSLRAEDTAVYYCYADVTGRSGTSIWNKRDDYWGQGTQVTVSSGGGGSGGGGSEVQLLESGGGLVQPGGSLRLSCAASGSIFSINAMGWHRQAPGKQRELVATMIGGSSTFYAESVQGRFTISRDNSKNTVYLQMNSLRAEDTAVYYCYADVTGRSGTSIWNKRDDYWGQGTQVTVSSGGGGSGGGGSEVQLLESGGGLVQPGGSLRLSCAASGFALDYYAIGWFRQAPGKGLEGVSCISSGEGSTYYADSVKGRFTISRDNSKNTVYLQMNSLRAEDTAVYYCATDSRGDDVACEGLRRNEYDYWGQGTLVTVSS
notes: also called LA46E11.8 (VHH) + linker + LA46E11.8 (VHH) + LA24C11.10
IC50 [4]: 13.5 nM
IC50 [6]: 0.554 nM

B6: BI-anti-VEGF (VHH)
VHH: DVQLVESGGGLVQPGGSLRLSCAASGRTFSSYSMGWFRQAPGKEREFVVAISKGGYKYDAVSLEGRFTISRDNAKNTVYLQINSLRPEDTAVYYCASSRAYGSSRLRLADTYEYWGQGTLVTVSS
notes: also called Positive control antibody BI-anti-VEGF
EC50 [3]: 0.034 µg/mL

B7: LA24C11 (Ang2 VHH) (VHH)
VHH: QVQLVESGGGLVQPGGSLRLSCAASGFALDYYAIGWFRQAPGKEREGVSCISSGDGSTYYADSVKGRFTISRDNAKNTVYLQMNSLKPEDTAVYYCATDSRGDDVACEGLRRNEYDYWGQGTQVTVSS
notes: Alpaca anti-Ang2 VHH
Kd [7]: 0.867 nM
kon [7]: 231000 M⁻¹ s⁻¹
Kd [8]: 2.18 nM
koff [8]: 0.00166 s⁻¹
kon [8]: 761000 M⁻¹ s⁻¹
koff [9]: ≤ 0.0002 s⁻¹

Further lines, results first:

Kd [1]: 0.788 nM
koff [1]: 0.000332 s⁻¹
kon [1]: 421000 M⁻¹ s⁻¹
B2: LA46E11.8 (VEGFA VHH) (VHH)
VHH: B1 VHH with Q1E, E5L, V23A, S43K, D61E, N64Q, A74S, K86R, L87A, L120Q
notes: Humanized anti-VEGF A VHH; also called humanized LA46E11

Kd [1]: 0.2 nM
koff [1]: 0.000213 s⁻¹
kon [1]: 1.06e+06 M⁻¹ s⁻¹
B5: LA42F8.5 (VHH)
VHH: EVQLLESGGGLVQPGGSLRLSCAASGFNLDYYPIGWFRQAPGKGLEGVSCISSVGSTNYADSVKGRFTISRDNSKNTVYLQMNSLRAEDTAVYYCAADPLCSALILPPPFLSWGQGTQVTVSS
notes: also called humanized LA42F8

Kd [7]: ≤ 0.828 nM
kon [7]: 242000 M⁻¹ s⁻¹
IC50 (read off the curve) [10]: ~0.06 µg/mL
koff [9]: ≤ 0.0002 s⁻¹
B8: LA24C11.10 (Ang2 VHH) (VHH)
VHH: B7 VHH with Q1E, V5L, E44G, R45L, D55E, A75S, K87R, P88A, Q123L
notes: Humanized anti-Ang2 VHH; also called hz24C11.10; LA24C11.0

IC50 [11]: ~0.596 nM
IC50 [12]: ~6.79 nM
EC50 [13]: 0.00208 µg/mL
IC50 [14]: ~0.019 nM
IC50 [15]: ~10.1 nM
B9: IgG (antibody, V domains shown)
VH: EVRLLESGGGLVQPGGSLRLSCAASGFTFSNYAMGWVRQAPGKGLEWVSAISGSGGSTYYADSVKGRFTTSRDDSKNALYLQMNSLRAEDTAVYYCARGGPGWYAADVWGQGTTVTVSS
VL: DIQMTQSPSSLSASVGDRVTITCRASQSISSYLNWYQQKPGKAPKLLIYAASSLQSGVPSRFSGSGSGTDFTLTISSLQPEDFATYYCQQADLPAFAFGGGTKVEIKR
notes: also called Negative control IgG
